Ends that are not written are not given here.
B1: aWssLahcl peptide (SEQ ID NO: 11) (peptide)
peptide: AWSSLAHCL
notes: Nine residues of the F strand of domain 1 of mature human ICAM-4, starting at A76; also called F strand peptide
B2: rqgktlrgp peptide (SEQ ID NO: 13) (peptide)
peptide: RQGKTLRGP
notes: Control peptide; nine residues of the D strand of domain 1 of mature human ICAM-4, starting at R56; also called D strand peptide
B3: tRwATSRit peptide (SEQ ID NO: 10) (peptide)
peptide: TRWATSRIT
modifications: not fully specified (residues 1, 3, 8, 9)
notes: Nine residues of the G strand of domain 1 of mature human ICAM-4, starting at T91; also called G strand peptide
B4: human ICAM-4Fc (Fc fusion)
chain: AQSPKGSPLAPSGTSVPFWVRMSPEFVAVQPGKSVQLNCSNSCPQPQNSSLRTPLRQGKTLRGPGWVSYQLLDVRAWSSLAHCLVTCAGKTRWATSRITAYKPPHSVILEPPVLKGRKYTLRCHVTQVFPVGYLVVTLRHGSRVIYSESLERFTGLDLANVTLTYEFAAGPRDFWQPVICHARLNLDGLVVRNSSAPITLMLAWSPAPTA
notes: Expressed in COS-7 cells, purified on protein A; also called Fc fusion ICAM-4 protein; wild-type ICAM-4Fc; not shown: Fc part from the pIg vector
B5: svpFWVrms peptide (SEQ ID NO: 9) (peptide)
peptide: SVPFWVRMS
notes: Nine residues of the A strand of domain 1 of mature human ICAM-4, starting at S15; also called A strand peptide

What was measured:
[1] = target: T1, αv integrins (as found on HT1080 cells) (UniProt P06756 31-1048); experiment: HT1080 cell adhesion to coated human ICAM-4Fc (5 ug/ml); value is for the MIXTURE with control peptide SEQ ID NO: 13, each peptide 750 uM
T1 construct: whole, on cells; also called αv integrin ligand
T1 sequence (P06756 31-1048): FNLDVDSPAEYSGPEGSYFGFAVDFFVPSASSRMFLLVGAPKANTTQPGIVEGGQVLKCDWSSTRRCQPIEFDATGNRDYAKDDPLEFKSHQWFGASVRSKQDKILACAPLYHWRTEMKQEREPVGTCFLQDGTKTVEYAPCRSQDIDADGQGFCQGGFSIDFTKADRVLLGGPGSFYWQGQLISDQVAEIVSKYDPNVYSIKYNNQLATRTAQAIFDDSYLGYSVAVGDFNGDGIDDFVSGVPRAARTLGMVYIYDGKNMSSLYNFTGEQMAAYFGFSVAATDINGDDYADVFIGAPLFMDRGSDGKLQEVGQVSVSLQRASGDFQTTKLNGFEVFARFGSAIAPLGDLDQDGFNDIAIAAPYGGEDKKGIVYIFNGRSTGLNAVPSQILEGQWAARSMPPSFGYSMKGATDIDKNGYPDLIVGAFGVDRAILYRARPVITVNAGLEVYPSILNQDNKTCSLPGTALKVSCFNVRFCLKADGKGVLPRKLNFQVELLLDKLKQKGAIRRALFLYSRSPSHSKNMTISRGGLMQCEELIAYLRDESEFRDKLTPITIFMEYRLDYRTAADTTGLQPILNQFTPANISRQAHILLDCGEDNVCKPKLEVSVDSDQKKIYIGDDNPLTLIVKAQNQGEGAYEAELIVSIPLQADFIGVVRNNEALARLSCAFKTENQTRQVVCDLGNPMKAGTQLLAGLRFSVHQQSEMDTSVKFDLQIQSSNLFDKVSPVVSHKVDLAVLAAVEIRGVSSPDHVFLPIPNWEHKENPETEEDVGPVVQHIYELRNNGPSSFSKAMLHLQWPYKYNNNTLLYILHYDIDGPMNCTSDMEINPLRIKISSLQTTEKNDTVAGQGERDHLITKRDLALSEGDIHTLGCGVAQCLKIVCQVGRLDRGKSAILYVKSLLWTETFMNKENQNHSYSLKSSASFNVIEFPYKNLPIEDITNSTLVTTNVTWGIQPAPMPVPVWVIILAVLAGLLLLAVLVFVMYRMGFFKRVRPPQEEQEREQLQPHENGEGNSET
Procedure: (§1) Human ICAM-4Fc was coated at a concentration of 5 μg/ml, peptides were used at 750 μM final concentration for each peptide, and each data point is the mean of two independent assays.
(§2) Cell adhesion assays were performed as described in Spring et al. 2001 (supra). Immulon4 96 well plates (Dynex Technologies, Billingshurst, United Kingdom) were coated with 1 μg/well goat-antihuman-Fc (Sigma, Poole, United Kingdom) for 24 hours at 4° C., washed three times with PBS and coated with an Fc fusion ICAM-4 protein for 18 hours at 4° C. before blocking with 0.4% BSA PBS for 2 hours at 22° C. Cells were labelled with 10 μg/ml 2′,7′-bis-(2-carboxyethyl)-5-(and-6-) carboxyfluorescein acetoxymethyl ester in assay buffer (IMEM, 2 mM EGTA, 10 μg/ml human ivIgG) for 15 minutes at 37° C. HT1080 cells were activated with 80 μM phorbol myristate acetate prior to both cells being washed with assay buffer containing 2 mM Mn²⁺. Cells, at 5×10⁴ cells per well, were added to the ICAM-4Fc-coated plates for 30 minutes at 37° C., prior to being given repeated washes in assay buffer and read on a fluorescence microplate reader (excitation 485 nm, emission 530 nm). The percentage of bound cells was calculated after each wash. Peptide inhibition was performed by incubating the cells with 500 μM peptide at 0° C. for 15 minutes ahead of their addition, still in the presence of 500 μM peptide to the ICAM-4Fc coated plates. In peptide inhibition studies the appropriate ICAM-4Fc coating concentration for each cell line was pre-determined by titration of ICAM-4Fc and the lowest concentration at which maximal binding was achieved was used to coat the plates

[2] = target: T1, αv integrins (as found on HT1080 cells); experiment: HT1080 cell adhesion to coated human ICAM-4Fc (5 ug/ml), peptide 750 uM; competitor human ICAM-4Fc
Procedure: as §1, §2

[3] = target: T1, αv integrins (as found on HT1080 cells); experiment: HT1080 cell adhesion to coated human ICAM-4Fc (5 ug/ml); value is for the MIXTURE of SEQ ID NO: 9, 10 and 11, each peptide 750 uM
Procedure: as §1, §2

[4] = target: T1, αv integrins (as found on HT1080 cells); experiment: HT1080 cell adhesion to coated murine ICAM-4Fc (5 ug/ml), peptide 500 uM; competitor murine ICAM-4Fc
Procedure: FIG. 14. […] Murine ICAM-4Fc was coated at a concentration of 5 μg/ml, peptides were used at 500 μM final concentration for each peptide, and each data point is the mean of two independent assays.
as §2, with “plates.” for “plates. In peptide inhibition studies the appropriate ICAM-4Fc coating concentration for each cell line was pre-determined by titration of ICAM-4Fc and the lowest concentration at which maximal binding was achieved was used to coat the plates”

[5] = target: T1, αv integrins (as found on HT1080 cells); experiment: HT1080 cell adhesion to coated human ICAM-4Fc (7.5 ug/ml), peptide 500 uM; competitor human ICAM-4Fc
Procedure: FIG. 10. […] Human ICAM-4Fc was coated at a concentration of 7.5 μg/ml, peptides were used at 500 μM final concentration for each peptide, and each data point is the mean of three independent assays.
as §2, with “plates.” for “plates. In peptide inhibition studies the appropriate ICAM-4Fc coating concentration for each cell line was pre-determined by titration of ICAM-4Fc and the lowest concentration at which maximal binding was achieved was used to coat the plates”

αLβ2 integrin = target: T2, αLβ2 integrin (UniProt P20701 26-1170; P05107 23-769); experiment: neutrophil adhesion to coated ICAM-4Fc with blocking integrin antibodies
T2 construct: whole, on cells; also called LFA-1; β2 integrins
Procedure: (§3) Utilising blocking β integrin subunit antibodies and our blocking ICAM-4 peptides (i.e., SEQ ID NOs: 9, 10, 11 and 13—see Example 1) in a microplate neutrophil adhesion assay. Neutrophils were purified from buffy coats (obtained from the National Blood Service, Bristol, UK) as described in Henderson et al. (1987, Biochem. J. 246: 325-329). Cell adhesion assays were performed as described in Example 1 above. […] Neutrophils were labelled with 10 μg/ml 2′,7′-bis-(2-carboxyethyl)-5-(and-6-)carboxyfluorescein acetoxymethyl ester (Sigma, Poole, UK) in assay buffer (Iscoves modified Eagle medium, 2 mM EGTA, 0.1% BSA for 15 minutes at 37° C. Neutrophils were washed with assay buffer containing 2 mM Mn²⁺. Neutrophils, at 5×10⁵ cells per well, were added to the ICAM-4Fc-coated plates for 10 minutes at 37° C., prior to being cyclically read on a fluorescence microplate reader (excitation 485 nm, emission 530 nm) and washed in assay buffer. The percentage of bound cells was calculated after each wash. Peptide and antibody inhibition was performed by incubating the cells with 500 μM peptide and 25 μg/ml antibody at 0° C. for 15 minutes before their addition to the ICAM-4 Fc coated plates. […]

αMβ2 integrin = αMβ2 integrin (UniProt P11215 17-1152; P05107 23-769); experiment: as above
Procedure: as §3

Binder	input cells bound as % of binding to ICAM-4Fc in the absence of peptides [1] [%]	input cells bound as % of binding to ICAM-4Fc in the absence of peptides [2] [%]	input cells bound as % of binding to ICAM-4Fc in the absence of peptides [3] [%]	input cells bound as % of binding to murine ICAM-4Fc in the absence of peptides [4] [%]	input cells bound as % of binding to ICAM-4Fc in the absence of peptides [5] [%]	binding result (αLβ2 integrin)	binding result (αMβ2 integrin)
B1	64	71	52				
B2		96		92	97		
B3	39	42	52	80	60		
B4						binds	binds
B5	40	41	52	60	46		
